From PMC4801485

Molecular target: cyclophilin from Geobacillus kaustophilus (Geobacillus kaustophilus)
Test: NMR line shape analysis

koff of the trans isomer (kBA): 720 s⁻¹
kon of the trans isomer (kAB): 5.2e+06 M⁻¹ s⁻¹
Binder: GSFGPDLRAGD [peptide substrate …]
